Test results reported in patent US20240400614A1, “CLEAVABLE PEPTIDES AND METHODS OF USE THEREOF” (Bright Peak Therapeutics AG, priority 2023, published 2024).
Square brackets hold non-standard residues; d marks the D form. Ends that are not written are not given here. Tyr(3-NO2) = N[C@@H](Cc1ccc(O)c([N+](=O)[O-])c1)C(=O)O; Nle = CCCC[C@H](N)C(=O)O; 2Abz = Nc1ccccc1C(=O)O

Legend:
Format in all cases: biochemical
[1] = biological target: T1, MMP-2 (Homo sapiens, UniProt P08253); assay: FRET peptide cleavage efficiency with MMP-2
T1 construct: purchased SIGMA PF023
T1 sequence (P08253 110-660): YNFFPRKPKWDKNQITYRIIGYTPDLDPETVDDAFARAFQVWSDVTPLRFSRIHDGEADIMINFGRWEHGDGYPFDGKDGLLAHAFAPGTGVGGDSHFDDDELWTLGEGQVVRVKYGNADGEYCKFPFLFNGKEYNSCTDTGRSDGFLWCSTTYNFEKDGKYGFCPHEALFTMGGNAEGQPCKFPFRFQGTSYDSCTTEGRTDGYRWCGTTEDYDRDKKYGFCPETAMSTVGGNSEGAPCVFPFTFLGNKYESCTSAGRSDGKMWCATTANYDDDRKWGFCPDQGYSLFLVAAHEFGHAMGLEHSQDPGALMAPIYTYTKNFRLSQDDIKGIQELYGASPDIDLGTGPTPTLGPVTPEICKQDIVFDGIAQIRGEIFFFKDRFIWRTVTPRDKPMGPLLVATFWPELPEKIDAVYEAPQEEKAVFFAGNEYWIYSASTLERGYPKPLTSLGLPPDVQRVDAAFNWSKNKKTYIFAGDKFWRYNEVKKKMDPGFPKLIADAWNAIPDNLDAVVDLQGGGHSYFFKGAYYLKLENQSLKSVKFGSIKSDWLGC

[2] = biological target: uPA (Homo sapiens, UniProt P00749); assay: FRET peptide cleavage efficiency with uPA
[3] = biological target: T2, matriptase (Homo sapiens, UniProt Q9Y5Y6); assay: FRET peptide cleavage efficiency with matriptase
T2 construct: purchased R&D Systems 3946-SEB
T2 sequence (Q9Y5Y6 615-855 limits assumed): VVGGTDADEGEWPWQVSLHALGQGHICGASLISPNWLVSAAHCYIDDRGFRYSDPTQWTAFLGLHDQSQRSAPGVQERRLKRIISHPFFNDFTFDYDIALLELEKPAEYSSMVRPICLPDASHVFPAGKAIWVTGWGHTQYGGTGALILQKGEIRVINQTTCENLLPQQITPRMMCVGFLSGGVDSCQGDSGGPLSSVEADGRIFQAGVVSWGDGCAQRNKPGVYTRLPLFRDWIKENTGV

[4] = 200 uM linker, 1 ug/ml protease, 37° C., buffer C pH 7.5
[5] = 200 uM linker, 1 ug/ml protease, 37° C., buffer A pH 8.5
[6] = 200 uM linker, 1 ug/ml protease, 37° C., buffer B pH 9.0

KLFSSKQ ([2Abz]KLFSSKQ[Tyr(3-NO2)]-NH2) [LNK072]
% cleavage MMP-2 t = 15 min [1, 4]: 1%
% cleavage MMP-2 t = 60 min [1, 4]: 13%
% cleavage MMP-2 t = 120 min [1, 4]: 25%

KWGKSAPLGLAG ([2Abz]KWGKSAPLGLAG[Tyr(3-NO2)]-NH2) [LNK026]
% cleavage uPA t = 15 min [2, 5]: 0%
% cleavage uPA t = 60 min [2, 5]: 1%
% cleavage uPA t = 120 min [2, 5]: 3%
% cleavage MMP-2 t = 15 min [1, 4]: 69%
% cleavage MMP-2 t = 60 min [1, 4]: 98%
% cleavage MMP-2 t = 120 min [1, 4]: 98%
% cleavage Matriptase t = 15 min [3, 6]: 97%
% cleavage Matriptase t = 60 min [3, 6]: 86%
% cleavage Matriptase t = 120 min [3, 6]: 86%

PASNRRLPLGLAG ([2Abz]PASNRRLPLGLAG[Tyr(3-NO2)]-NH2) [LNK018]
% cleavage uPA t = 15 min [2, 5]: 0%
% cleavage uPA t = 60 min [2, 5]: 0%
% cleavage uPA t = 120 min [2, 5]: 0%
% cleavage MMP-2 t = 15 min [1, 4]: 40%
% cleavage MMP-2 t = 60 min [1, 4]: 83%
% cleavage MMP-2 t = 120 min [1, 4]: 87%
% cleavage Matriptase t = 15 min [3, 6]: 49%
% cleavage Matriptase t = 60 min [3, 6]: 92%
% cleavage Matriptase t = 120 min [3, 6]: 97%

RQRRS-Nle-PLGLAG ([2Abz]RQRRS[Nle]PLGLAG[Tyr(3-NO2)]-NH2) [LNK025]
% cleavage uPA t = 15 min [2, 5]: 0%
% cleavage uPA t = 60 min [2, 5]: 1%
% cleavage uPA t = 120 min [2, 5]: 2%
% cleavage MMP-2 t = 15 min [1, 4]: 64%
% cleavage MMP-2 t = 60 min [1, 4]: 97%
% cleavage MMP-2 t = 120 min [1, 4]: 98%
% cleavage Matriptase t = 15 min [3, 6]: 97%
% cleavage Matriptase t = 60 min [3, 6]: 84%
% cleavage Matriptase t = 120 min [3, 6]: 77%

RQRRSAAPLGLAG ([2Abz]RQRRSAAPLGLAG[Tyr(3-NO2)]-NH2) [LNK028]
% cleavage uPA t = 15 min [2, 5]: 0%
% cleavage uPA t = 60 min [2, 5]: 1%
% cleavage uPA t = 120 min [2, 5]: 2%
% cleavage MMP-2 t = 15 min [1, 4]: 72%
% cleavage MMP-2 t = 60 min [1, 4]: 99%
% cleavage MMP-2 t = 120 min [1, 4]: 99%
% cleavage Matriptase t = 15 min [3, 6]: 97%
% cleavage Matriptase t = 60 min [3, 6]: 86%
% cleavage Matriptase t = 120 min [3, 6]: 79%

RQRRSAPLGLAG ([2Abz]RQRRSAPLGLAG[Tyr(3-NO2)]-NH2) [LNK009]
% cleavage uPA t = 15 min [2, 5]: 0%
% cleavage uPA t = 60 min [2, 5]: 1%
% cleavage uPA t = 120 min [2, 5]: 3%
% cleavage MMP-2 t = 15 min [1, 4]: 72%
% cleavage MMP-2 t = 60 min [1, 4]: 99%
% cleavage MMP-2 t = 120 min [1, 4]: 99%
% cleavage Matriptase t = 15 min [3, 6]: 71%
% cleavage Matriptase t = 60 min [3, 6]: 45%
% cleavage Matriptase t = 120 min [3, 6]: 31%

RQRRSVVGG ([2Abz]RQRRSVVGG[Tyr(3-NO2)]-NH2) [LNK029]
% cleavage uPA t = 15 min [2, 5]: 0%
% cleavage uPA t = 60 min [2, 5]: 0%
% cleavage uPA t = 120 min [2, 5]: 1%
% cleavage MMP-2 t = 15 min [1, 4]: 0%
% cleavage MMP-2 t = 60 min [1, 4]: 0%
% cleavage MMP-2 t = 120 min [1, 4]: 0%
% cleavage Matriptase t = 15 min [3, 6]: 96%
% cleavage Matriptase t = 60 min [3, 6]: 96%
% cleavage Matriptase t = 120 min [3, 6]: 98%

RYGKSAPLGLAG ([2Abz]RYGKSAPLGLAG[Tyr(3-NO2)]-NH2) [LNK027]
% cleavage uPA t = 15 min [2, 5]: 3%
% cleavage uPA t = 60 min [2, 5]: 9%
% cleavage uPA t = 120 min [2, 5]: 17%
% cleavage MMP-2 t = 15 min [1, 4]: 66%
% cleavage MMP-2 t = 60 min [1, 4]: 99%
% cleavage MMP-2 t = 120 min [1, 4]: 99%
% cleavage Matriptase t = 15 min [3, 6]: 99%
% cleavage Matriptase t = 60 min [3, 6]: 97%
% cleavage Matriptase t = 120 min [3, 6]: 98%

SGRVLGPAGLVG (Abz-SGRVLGPAGLVG[Tyr(3-NO2)]) [LNK005]
% cleavage uPA t = 15 min [2]: 0%
% cleavage uPA t = 60 min [2]: 0%
% cleavage uPA t = 120 min [2]: 1%
% cleavage MMP-2 t = 15 min [1]: 100%
% cleavage MMP-2 t = 60 min [1]: 98%
% cleavage MMP-2 t = 120 min [1]: 97%
% cleavage Matriptase t = 15 min [3]: 15%
% cleavage Matriptase t = 60 min [3]: 63%
% cleavage Matriptase t = 120 min [3]: 86%

SGRVLGPANLVG (Abz-SGRVLGPANLVG[Tyr(3-NO2)]) [LNK006]
% cleavage uPA t = 15 min [2]: 0%
% cleavage uPA t = 60 min [2]: 0%
% cleavage uPA t = 120 min [2]: 1%
% cleavage MMP-2 t = 15 min [1]: 98%
% cleavage MMP-2 t = 60 min [1]: 98%
% cleavage MMP-2 t = 120 min [1]: 96%
% cleavage Matriptase t = 15 min [3]: 19%
% cleavage Matriptase t = 60 min [3]: 71%
% cleavage Matriptase t = 120 min [3]: 92%

SGRVLGPLNLSG ([2Abz]SGRVLGPLNLSG[Tyr(3-NO2)]-NH2) [LNK008]
% cleavage uPA t = 15 min [2, 5]: 1%
% cleavage uPA t = 60 min [2, 5]: 1%
% cleavage uPA t = 120 min [2, 5]: 2%
% cleavage MMP-2 t = 15 min [1, 4]: 71%
% cleavage MMP-2 t = 60 min [1, 4]: 99%
% cleavage MMP-2 t = 120 min [1, 4]: 99%
% cleavage Matriptase t = 15 min [3, 6]: 20%
% cleavage Matriptase t = 60 min [3, 6]: 72%
% cleavage Matriptase t = 120 min [3, 6]: 92%

SGRVLPAGLVG ([2Abz]SGRVLPAGLVG[Tyr(3-NO2)]-NH2) [LNK007]
% cleavage uPA t = 15 min [2, 5]: 0%
% cleavage uPA t = 60 min [2, 5]: 0%
% cleavage uPA t = 120 min [2, 5]: 1%
% cleavage MMP-2 t = 15 min [1, 4]: 99%
% cleavage MMP-2 t = 60 min [1, 4]: 95%
% cleavage MMP-2 t = 120 min [1, 4]: 94%
% cleavage Matriptase t = 15 min [3, 6]: 23%
% cleavage Matriptase t = 60 min [3, 6]: 79%
% cleavage Matriptase t = 120 min [3, 6]: 97%

SGRVLPANLVG ([2Abz]SGRVLPANLVG[Tyr(3-NO2)]-NH2) [LNK015]
% cleavage uPA t = 15 min [2, 5]: 0%
% cleavage uPA t = 60 min [2, 5]: 0%
% cleavage uPA t = 120 min [2, 5]: 1%
% cleavage MMP-2 t = 15 min [1, 4]: 94%
% cleavage MMP-2 t = 60 min [1, 4]: 99%
% cleavage MMP-2 t = 120 min [1, 4]: 98%
% cleavage Matriptase t = 15 min [3, 6]: 25%
% cleavage Matriptase t = 60 min [3, 6]: 78%
% cleavage Matriptase t = 120 min [3, 6]: 96%

SGRVLPLGMRA ([2Abz]SGRVLPLGMRA[Tyr(3-NO2)]-NH2) [LNK023]
% cleavage uPA t = 15 min [2, 5]: 2%
% cleavage uPA t = 60 min [2, 5]: 2%
% cleavage uPA t = 120 min [2, 5]: 3%
% cleavage MMP-2 t = 15 min [1, 4]: 96%
% cleavage MMP-2 t = 60 min [1, 4]: 98%
% cleavage MMP-2 t = 120 min [1, 4]: 98%
% cleavage Matriptase t = 15 min [3, 6]: 38%
% cleavage Matriptase t = 60 min [3, 6]: 92%
% cleavage Matriptase t = 120 min [3, 6]: 99%

SGRVLPYAMTA ([2Abz]SGRVLPYAMTA[Tyr(3-NO2)]-NH2) [LNK024]
% cleavage uPA t = 15 min [2, 5]: 1%
% cleavage uPA t = 60 min [2, 5]: 0%
% cleavage uPA t = 120 min [2, 5]: 1%
% cleavage MMP-2 t = 15 min [1, 4]: 55%
% cleavage MMP-2 t = 60 min [1, 4]: 97%
% cleavage MMP-2 t = 120 min [1, 4]: 99%
% cleavage Matriptase t = 15 min [3, 6]: 44%
% cleavage Matriptase t = 60 min [3, 6]: 92%
% cleavage Matriptase t = 120 min [3, 6]: 98%

SGRVLRKAGPAGLVG ([2Abz]SGRVLRKAGPAGLVG[Tyr(3-NO2)]-NH2) [LNK013]
% cleavage uPA t = 15 min [2, 5]: 0%
% cleavage uPA t = 60 min [2, 5]: 2%
% cleavage uPA t = 120 min [2, 5]: 6%
% cleavage MMP-2 t = 15 min [1, 4]: 99%
% cleavage MMP-2 t = 60 min [1, 4]: 99%
% cleavage MMP-2 t = 120 min [1, 4]: 100%
% cleavage Matriptase t = 15 min [3, 6]: 99%
% cleavage Matriptase t = 60 min [3, 6]: 94%
% cleavage Matriptase t = 120 min [3, 6]: 94%

SGRVLTLRKAALPLAM ([2Abz]SGRVLTLRKAALPLAM[Tyr(3-NO2)]-NH2) [LNK020]
% cleavage uPA t = 15 min [2, 5]: 11%
% cleavage uPA t = 60 min [2, 5]: 26%
% cleavage uPA t = 120 min [2, 5]: 45%
% cleavage MMP-2 t = 15 min [1, 4]: 55%
% cleavage MMP-2 t = 60 min [1, 4]: 98%
% cleavage MMP-2 t = 120 min [1, 4]: 99%
% cleavage Matriptase t = 15 min [3, 6]: 98%
% cleavage Matriptase t = 60 min [3, 6]: 99%
% cleavage Matriptase t = 120 min [3, 6]: 99%

SGRVLTLRKAGPAGLVG ([2Abz]SGRVLTLRKAGPAGLVG[Tyr(3-NO2)]-NH2) [LNK011]
% cleavage uPA t = 15 min [2, 5]: 6%
% cleavage uPA t = 60 min [2, 5]: 17%
% cleavage uPA t = 120 min [2, 5]: 35%
% cleavage MMP-2 t = 15 min [1, 4]: 98%
% cleavage MMP-2 t = 60 min [1, 4]: 99%
% cleavage MMP-2 t = 120 min [1, 4]: 98%
% cleavage Matriptase t = 15 min [3, 6]: 99%
% cleavage Matriptase t = 60 min [3, 6]: 99%
% cleavage Matriptase t = 120 min [3, 6]: 99%

SGRVLTLRKAGPANLVG ([2Abz]SGRVLTLRKAGPANLVG[Tyr(3-NO2)]-NH2) [LNK012]
% cleavage uPA t = 15 min [2, 5]: 0%
% cleavage uPA t = 60 min [2, 5]: 15%
% cleavage uPA t = 120 min [2, 5]: 34%
% cleavage MMP-2 t = 15 min [1, 4]: 97%
% cleavage MMP-2 t = 60 min [1, 4]: 97%
% cleavage MMP-2 t = 120 min [1, 4]: 94%
% cleavage Matriptase t = 15 min [3, 6]: 99%
% cleavage Matriptase t = 60 min [3, 6]: 99%
% cleavage Matriptase t = 120 min [3, 6]: 98%
